The text below walks through data of PMC3221699.

Like-named read-outs stand apart in the source and are kept apart here.

Assay [1] deals with IL-10R1 (Homo sapiens) (UniProt Q13651). As to conditions: cited from earlier work.
Assay [2] has as its target human IL-10R1 chain coupled to agarose beads (human) (UniProt Q13651).
Assay [3] addresses IL-10R1-FC fusion protein (human IL-10R1 extracellular region fused to mouse IgG2a FC) (human) (UniProt Q13651). The assay is described as follows: SPR; Biacore T200, 20 °C, HBS (10 mM Hepes pH 7.4, 0.15 M NaCl, 0.1% P20, 0.1 mg/mL BSA); IL-10R1-FC captured (~75 RU) by anti-murine FC antibody on a CM5 chip; RhCMVIL-10 (0-100 nM) or M1/M2 (100, 500, 1000 nM) injected at 75 µL/min; global fit to a bivalent analyte model (Rmax, and tc for M1, fixed for the mutants); KD2 called apparent.

Assay [4] has as its target Rhesus cytomegalovirus IL-10 (RhCMVIL-10), wild type (rhesus cytomegalovirus (RhCMV) strain 68-1). The assay can be described thus: SEC; 24 mL Superdex 200 gel filtration column; elution position of affinity purified RhCMVIL-10 compared with cIL-10; fractions analysed by SDS-PAGE.
In assay [5] the target is IL-10R1 (Homo sapiens) (UniProt Q13651). As to conditions: cited from earlier work. The source holds these as a separate data set.

Chain of cIL-10 (P22301 19-178): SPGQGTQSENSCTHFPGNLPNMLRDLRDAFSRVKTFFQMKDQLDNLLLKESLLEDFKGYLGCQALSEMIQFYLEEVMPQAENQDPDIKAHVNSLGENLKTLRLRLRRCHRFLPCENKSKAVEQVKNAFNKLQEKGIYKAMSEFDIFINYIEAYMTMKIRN

CMVIL-10 (from UniProt P17150): the dissociation constant (Kd) in assay [1] was 1 nM.

Consider H6FXa-RhCMVIL-10 Asp-144His (ligand), for which the proliferation of TF-1/IL-10R1 cells, EC50 relative to RhCMVIL-10 and cIL-10; considerable activity retained at 1,000 ng/ml in assay [2] came out at 300 fold.

Regarding H6FXa-RhCMVIL-10 Gln-38Arg (ligand), the proliferation of TF-1/IL-10R1 cells, EC50 relative to RhCMVIL-10 and cIL-10; considerable activity retained at 1,000 ng/ml in assay [2] worked out at 100 fold.

As to “RhCMVIL-10 mutant 1 (M1; Gln-38Arg, Asp-144His), RhCMVIL-10-FXaH6 (ligand)”, in assay [3], the KD1 (bivalent analyte model, kd1/ka1) was 43 µM; the KD2 (bivalent analyte model, apparent, kd2/ka1) was found to be 410 nM; the Rm-obs (maximum RU observed at the highest concentration, 1000 nM) was determined as 0.8 RU; the ka1 (bivalent analyte model, first step) came to 4620 M⁻¹ s⁻¹. In assay [3], the ka2 (bivalent analyte model, second step) was 0.000232 1/RUs; the kd1 (bivalent analyte model, first step) was 0.199 s⁻¹; the kd2 (bivalent analyte model, second step) turned out to be 0.00187 s⁻¹.

With “RhCMVIL-10 mutant 2 (M2; Glu-142Gln, Asp-144His), RhCMVIL-10-FXaH6 (ligand)”, in assay [3], the KD1 (bivalent analyte model, kd1/ka1) is 14.7 µM; the KD2 (bivalent analyte model, apparent, kd2/ka1) was 94.4 nM; the Rm-obs (maximum RU observed at the highest concentration, 1000 nM) is 3 RU; the ka1 (bivalent analyte model, first step) turned out to be 14500 M⁻¹ s⁻¹. Moreover, in assay [3], the ka2 (bivalent analyte model, second step) is 0.000548 1/RUs; the kd1 (bivalent analyte model, first step) came to 0.212 s⁻¹; the kd2 (bivalent analyte model, second step) is 0.00136 s⁻¹.

“Rhesus cytomegalovirus IL-10 (RhCMVIL-10), wild type (ligand)” yielded a stoichiometry N in assay [4] of 2. Moreover, in assay [3], the KD1 (bivalent analyte model, kd1/ka1) amounted to 0.0651 µM; the KD2 (bivalent analyte model, apparent, kd2/ka1) worked out at 1.3 nM; the Rm-obs (maximum RU observed at the highest concentration, 100 nM) amounted to 20.9 RU; the ka1 (bivalent analyte model, first step) stood at 1.18e+06 M⁻¹ s⁻¹. In addition, in assay [3], the ka2 (bivalent analyte model, second step) was 0.00105 1/RUs; the kd1 (bivalent analyte model, first step) amounted to 0.0767 s⁻¹; the kd2 (bivalent analyte model, second step) was determined as 0.00155 s⁻¹.

In the case of cIL-10 (from UniProt P22301), the Kd in assay [5] is 1 nM.
